# US8541373B2, “BChE albumin fusions for the treatment of cocaine abuse” (priority 2009, dated 2013)
# Where “and” joins values, the source holds several entries; their conditions need not be identical. Equal entries are not always repeated.
# Experiment: AlbuBChE serum pharmacokinetics after single IM dose (ELISA)
# Protocol: The study included a total of 11 naïve, adult male cynomolgus monkeys divided into four dose groups: • a control group of two cynomologus monkeys that only received a single IV dose of cocaine; • three dose groups that were treated with a single IM dose of AlbuBChE at 0.2, 1 or 5 mg/kg. Three naïve, adult male cynomolgus monkeys were used in each dose group. Following AlbuBChE treatment, a 1 mg/kg IV dose of cocaine was administered at 2, 48, 96, 120, and 240 hours after AlbuBChE dose administration.
# A single intramuscular (IM) administration of AlbuBChE was administered on study day 1 and blood was collected at the time points outlined in Table 2. Approximately 0.5 mL of whole blood was collected from the femoral vein into serum separate tubes (SST).
# Blocking is done with 2% Casein in 1×PBS, 200 μL/well, 2 hours at room temperature. After washing, 100 μL of diluted serum samples are added to the plates along with standards. Standards are generated through 3.64 fold, serial dilution of AlbuBChE from 2000 to 3.1 ng/mL. Serum samples and standards are maintained at 10% serum by dilution with buffer containing pooled cynomolgus monkey serum. A wash step precedes detection with 100 μL of anti-HSA mAb-6502-HRP at 0.04 μg/mL for 1 hour. Wells are washed again, prior to developing with 100 μl of TMB substrate. After 15 minutes, the reaction is terminated with 100 μL/well of 1N H2SO4 and read on SpectraMax plate reader at 450/570 nm. Values for unknown serum samples are calculated by interpolation of standard curve generated by 4-parameter fit of AlbuBChE standards. The limit of quantitation in cynomolgus serum was 21.1 ng/mL.
# AlbuBChE pharmacokinetic parameter values were determined using serum concentration-time profiles for individual animals. The computer software WinNonlin Professional (Version 4.0.1 Pharsight Corporation, USA) was used. Specifically the model for non-compartmental analysis with extravascular input was applied. If there were fewer than 3 data points in the terminal phase of the serum concentration curve, a terminal phase half-life and PK parameters derived from the half-life were not calculated for that profile. Parameters analyzed include tmax, Cmax, t1/2, AUC(0-t) and AUC(0-∞) were calculated.
substance,measurement,setting,value
AlbuBChE,"AUC % Extrap, individual animals",0.2 mg/kg IM,19.3% and 18.8% and 14.1%
same,"AUC(0-t), individual animals",0.2 mg/kg IM,2746 ng·h/mL and 7878 ng·h/mL and 8479 ng·h/mL
same,"AUC(0-∞), individual animals",0.2 mg/kg IM,3404 ng·h/mL and 9704 ng·h/mL and 9867 ng·h/mL
same,"Cmax, individual animals",0.2 mg/kg IM,176 ng/mL and 279 ng/mL and 281 ng/mL
same,Dose Normalized AUC(0-∞),0.2 mg/kg IM,38292
same,Dose Normalized Cmax,0.2 mg/kg IM,1226
same,Mean AUC % Extrap,0.2 mg/kg IM,17.4%
same,Mean AUC(0-t),0.2 mg/kg IM,6368 ng·h/mL
same,Mean AUC(0-∞),0.2 mg/kg IM,7658 ng·h/mL
same,Mean Cmax,0.2 mg/kg IM,245 ng/mL
same,Mean t½,0.2 mg/kg IM,27.2 h
same,"Tmax, individual animals",0.2 mg/kg IM,3 h
same,"t½, individual animals",0.2 mg/kg IM,15.3 h and 42.1 h and 24.4 h
same,"AlbuBChE serum concentration, individual animals","0.2 mg/kg IM, 1 hr post dose",37.1 ng/mL and 235.4 ng/mL and 111.0 ng/mL
same,Mean AlbuBChE serum concentration,"0.2 mg/kg IM, 1 hr post dose",128 ng/mL
same,"AlbuBChE serum concentration, individual animals","0.2 mg/kg IM, 3 hr post dose",176.1 ng/mL and 278.5 ng/mL and 280.7 ng/mL
same,Mean AlbuBChE serum concentration,"0.2 mg/kg IM, 3 hr post dose",245 ng/mL
same,"AlbuBChE serum concentration, individual animals","0.2 mg/kg IM, 6 hr post dose",144.0 ng/mL and 212.1 ng/mL and 272.4 ng/mL
same,Mean AlbuBChE serum concentration,"0.2 mg/kg IM, 6 hr post dose",210 ng/mL
same,"AlbuBChE serum concentration, individual animals","0.2 mg/kg IM, 12 hr post dose",88.4 ng/mL and 143.1 ng/mL and 197.9 ng/mL
same,Mean AlbuBChE serum concentration,"0.2 mg/kg IM, 12 hr post dose",143 ng/mL
same,"AlbuBChE serum concentration, individual animals","0.2 mg/kg IM, 24 hr post dose",52.3 ng/mL and 95.2 ng/mL and 135.7 ng/mL
same,Mean AlbuBChE serum concentration,"0.2 mg/kg IM, 24 hr post dose",94.4 ng/mL
same,"AlbuBChE serum concentration, individual animals","0.2 mg/kg IM, 36 hr post dose",29.8 ng/mL and 68.3 ng/mL and 87.4 ng/mL
same,Mean AlbuBChE serum concentration,"0.2 mg/kg IM, 36 hr post dose",61.8 ng/mL
same,"AlbuBChE serum concentration, individual animals","0.2 mg/kg IM, 48 hr post dose",<LLOQ and 66.4 ng/mL and 80.7 ng/mL
same,Mean AlbuBChE serum concentration,"0.2 mg/kg IM, 48 hr post dose",73.6 ng/mL
same,"AlbuBChE serum concentration, individual animals","0.2 mg/kg IM, 72 hr post dose",<LLOQ and 44.5 ng/mL and 39.5 ng/mL
same,Mean AlbuBChE serum concentration,"0.2 mg/kg IM, 72 hr post dose",42.0 ng/mL
same,"AlbuBChE serum concentration, individual animals","0.2 mg/kg IM, 96 hr post dose",<LLOQ (2×) and 30.1 ng/mL
same,Mean AlbuBChE serum concentration,"0.2 mg/kg IM, 96 hr post dose",<LLOQ
same,"AlbuBChE serum concentration, individual animals","0.2 mg/kg IM, 128 hr post dose",<LLOQ
same,Mean AlbuBChE serum concentration,"0.2 mg/kg IM, 128 hr post dose",<LLOQ
same,"AlbuBChE serum concentration, individual animals","0.2 mg/kg IM, 144 hr post dose",<LLOQ
same,Mean AlbuBChE serum concentration,"0.2 mg/kg IM, 144 hr post dose",<LLOQ
same,"AlbuBChE serum concentration, individual animals","0.2 mg/kg IM, 168 hr post dose",<LLOQ
same,Mean AlbuBChE serum concentration,"0.2 mg/kg IM, 168 hr post dose",<LLOQ
same,"AlbuBChE serum concentration, individual animals","0.2 mg/kg IM, 216 hr post dose",<LLOQ
same,Mean AlbuBChE serum concentration,"0.2 mg/kg IM, 216 hr post dose",<LLOQ
same,"AlbuBChE serum concentration, individual animals","0.2 mg/kg IM, 264 hr post dose",<LLOQ
same,Mean AlbuBChE serum concentration,"0.2 mg/kg IM, 264 hr post dose",<LLOQ
same,tmax,"0.2 mg/kg IM, group value",3 h
same,"AUC % Extrap, individual animals",1 mg/kg IM,2.54% and 3.67% and 2.90%
same,"AUC(0-t), individual animals",1 mg/kg IM,43128 ng·h/mL and 51298 ng·h/mL and 46185 ng·h/mL
same,"AUC(0-∞), individual animals",1 mg/kg IM,44251 ng·h/mL and 53255 ng·h/mL and 47564 ng·h/mL
same,"Cmax, individual animals",1 mg/kg IM,1666 ng/mL and 1374 ng/mL and 1956 ng/mL
same,"Tmax, individual animals",1 mg/kg IM,3 h
same,"t½, individual animals",1 mg/kg IM,28.4 h and 34.3 h and 30.3 h
same,Dose Normalized AUC(0-∞),1.0 mg/kg IM,48357
same,Dose Normalized Cmax,1.0 mg/kg IM,1665
same,Mean AUC % Extrap,1.0 mg/kg IM,3.04%
same,Mean AUC(0-t),1.0 mg/kg IM,46871 ng·h/mL
same,Mean AUC(0-∞),1.0 mg/kg IM,48357 ng·h/mL
same,Mean Cmax,1.0 mg/kg IM,1665 ng/mL
same,Mean t½,1.0 mg/kg IM,31 h
same,"AlbuBChE serum concentration, individual animals","1.0 mg/kg IM, 1 hr post dose",1058.9 ng/mL and 462.4 ng/mL and 1598.6 ng/mL
same,Mean AlbuBChE serum concentration,"1.0 mg/kg IM, 1 hr post dose",1040 ng/mL
same,"AlbuBChE serum concentration, individual animals","1.0 mg/kg IM, 3 hr post dose",1665.5 ng/mL and 1374.0 ng/mL and 1956.0 ng/mL
same,Mean AlbuBChE serum concentration,"1.0 mg/kg IM, 3 hr post dose",1665 ng/mL
same,"AlbuBChE serum concentration, individual animals","1.0 mg/kg IM, 6 hr post dose",1269.3 ng/mL and 1266.3 ng/mL and 1596.1 ng/mL
same,Mean AlbuBChE serum concentration,"1.0 mg/kg IM, 6 hr post dose",1377 ng/mL
same,"AlbuBChE serum concentration, individual animals","1.0 mg/kg IM, 12 hr post dose",884.3 ng/mL and 968.1 ng/mL and 1049.5 ng/mL
same,Mean AlbuBChE serum concentration,"1.0 mg/kg IM, 12 hr post dose",967 ng/mL
same,"AlbuBChE serum concentration, individual animals","1.0 mg/kg IM, 24 hr post dose",630.1 ng/mL and 673.8 ng/mL and 572.1 ng/mL
same,Mean AlbuBChE serum concentration,"1.0 mg/kg IM, 24 hr post dose",625 ng/mL
